Results on 6 molecules are retold here after article PMC7089611 (Febs Letters, 2012).

Where “and” joins values, the source holds several entries; their conditions need not be identical. Equal values may be shown once. Read-outs that look alike come from different tables or passages of the source.

Data set [1] concerns the molecule itself. Nature of the data set: AUC.
Data set [2] concerns the molecule itself. Put plainly: AUC. The source holds these as a separate data set.
Data set [3] deals with the molecule itself. Nature of the data set: AUC. This is another data set of the same source.
Data set [4] can be described thus: Secondary structural content by CD spectroscopy. The data set is classed as physicochemical. The conditions noted are these: 25 °C, protein 5 μM, 50 mM Tris–HCl pH 7.5, 150 mM NaCl, 0.1% β‐mercaptoethanol, CDSSTR.
Data set [5] is classed as physicochemical. The conditions noted are these: CD at 220 nm, protein 7 μM, 50 mM Tris–HCl pH 7.5, 150 mM NaCl, 0.1% β‐mercaptoethanol.

B1: HCoV‐229E nucleocapsid (N) protein C‐terminal domain N245–389 (domain or fragment)
chain: QKPRWKRQPNDDVTSNVTQCFGPRDLDHNFGSAGVVANGVKAKGYPQFAELVPSTAAMLFDSHIVSKESGNTVVLTFTTRVTVPKDHPHLGKFLEELNAFTREMQQHPLLNPSALEFNPSQTSPATAEPVRDEVSIETDIIDEVN
B1: the Kd – broadly, the free concentration of one partner at which half of the binding sites on the other are occupied at equilibrium, for simple one-to-one binding – was about 9.7 µM in the data set “AUC [1]”, about 6.1 µM in the data set “AUC [2]” and 3.5 µM in “AUC [3]”.

B2: HCoV‐229E nucleocapsid (N) protein C‐terminal domain truncation N245–376 (domain or fragment)
chain: QKPRWKRQPNDDVTSNVTQCFGPRDLDHNFGSAGVVANGVKAKGYPQFAELVPSTAAMLFDSHIVSKESGNTVVLTFTTRVTVPKDHPHLGKFLEELNAFTREMQQHPLLNPSALEFNPSQTSPATAEPVRD
As for B2, in the data set “AUC [3]”, the dissociation constant Kd is 159 µM; the stoichiometry N (commonly the number of molecules, sites or subunits per partner or assembly) is 4 and 2.

B3: HCoV‐229E nucleocapsid (N) protein C‐terminal domain truncation N245–350 (domain or fragment)
chain: QKPRWKRQPNDDVTSNVTQCFGPRDLDHNFGSAGVVANGVKAKGYPQFAELVPSTAAMLFDSHIVSKESGNTVVLTFTTRVTVPKDHPHLGKFLEELNAFTREMQQ
Take B3: in “AUC [3]”, the Kd stood at 256 µM; the “stoichiometry N” value was 2 and 4.

B4: N245–350: truncated C‐terminal domain of the HCoV‐229E N protein, dimeric C‐terminal structural domain (protein)
chain: B3 chain
modifications: left off: His6, C-terminal, state not stated
Consider B4, for which, in data set [4], the “Disordered (random coil) content” value was about 15%, the Sheet content is on record as about 22% and the Turn content is recorded as about 12%. The “melting temperature (Tm)” value in data set [5] amounted to 35.5 °C.

B5: HCoV‐229E nucleocapsid (N) protein C‐terminal domain truncation N245–370 (domain or fragment)
chain: QKPRWKRQPNDDVTSNVTQCFGPRDLDHNFGSAGVVANGVKAKGYPQFAELVPSTAAMLFDSHIVSKESGNTVVLTFTTRVTVPKDHPHLGKFLEELNAFTREMQQHPLLNPSALEFNPSQTSPAT
As for B5, in the data set “AUC [3]”, the equilibrium dissociation constant (Kd) stood at 177 µM; the “stoichiometry N” value is 2 and 4.

B6: HCoV‐229E nucleocapsid (N) protein C‐terminal domain truncation N245–382 (domain or fragment)
chain: QKPRWKRQPNDDVTSNVTQCFGPRDLDHNFGSAGVVANGVKAKGYPQFAELVPSTAAMLFDSHIVSKESGNTVVLTFTTRVTVPKDHPHLGKFLEELNAFTREMQQHPLLNPSALEFNPSQTSPATAEPVRDEVSIET
In the case of B6, in the data set “AUC [3]”, the Kd is 3.83 µM. In other words, the single-digit micromolar range.
